The values below come from paper PMC12705702, “Structural insights into the atypical filament assembly of pyrin domain-containing IFI16” (The EMBO Journal, 2025).

The data set deals with the molecule itself. As to the kind of experiment: cryo-EM structure; filament auto-assembled by recombinant IFI16^PYD; 73 uM in 40 mM HEPES pH 7.4, 160 mM NaCl, 1 mM EDTA, 1 mM DTT; helical reconstruction, 3.3 Å.

B1: human IFI16 pyrin domain (IFI16^PYD, residues 1-94) with C-terminal His6-tag (domain or fragment, UniProt Q16666 1-94, looked up)
chain: MGKKYKNIVLLKGLEVINDYHFRMVKSLLSNDLKLNLKMREEYDKIQIADLMEEKFRGDAGLGKLIKIFEDIPTLEDLAETLKKEKLKVKGPAL
notes: Interferon-inducible protein 16 (IFI16), human, pyrin domain, residues 1-94; Assembles into a helical filament; the number of protomers in a filament is open-ended; also called recombinant IFI16^PYD; pET21b IFI16^PYD-His6; source: E. coli BL21(DE3), purified (Ni-NTA, Superdex 75 size exclusion)
On to B1, for which the binding result is given as “binds”.
